The series is described as follows: yeast display, Sf9 membrane polyspecificity reagent, FACS + sequencing; frameworks hold sequencing errors. The procedure, abridged:
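Galactose induction of a Saccharomyces cerevisiae BJ5465 synthetic nanobody display library ran 36–48 hours. The cells were then stained for 1 hour at 4 °C with 10% biotinylated, detergent-solubilized Sf9 membrane reagent, pulled down on streptavidin microbeads and FACS-sorted into low and high (top ~1%) gates on expression and reagent-binding fluorescence. Labels for polyreactivity follow the gate of origin.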
As to “QVQLVESGGGLVQAGCSLRLSSPASGRIFWANVMGWYRQAPGKERELVAAISYSGTGTYYADSVKGRFTISPDYAKNTVYLQMNSLKPEDTAFYYFAKAPYIYYWGQGTHVTVSS”, the “polyreactivity (PSR sort gate)” value is “high polyreactivity”.

With “QVQLVESGGGLVQAGGSLRLSCASSGSTFYNNAMGWYRPAPGKDRELVAAISSGGGTYYADSVKGRFTISRDNAKNTVYLQMNSLKPEDTAVYYCAADFANTTHWGRIKRYDYWGQGTQVTVSS”, the “polyreactivity (PSR sort gate)” value was “low polyreactivity”.

Regarding “QVQLVESGGGLVQAGGSLRLSCAASGRTFRRNAMGWYRQAPGKEWELVADISNGDSTKYADSVKGRFTISRDNAKNTVYLQMNSLKPEDTAVYYCNAQRYRVVVYNSHGWQTRNYWGQGTQVTVSS”, the “polyreactivity (PSR sort gate)” value is given as “low polyreactivity”.

Turning to “QVQLVESGGGLVQAGGSLRLSCAASGRTFRQYAMGWYRQSPGKERELVATISGGGGNTYYADSVKGSFTISRDNAKNTVYLQMNSLKQEDTAVYYCAARRRDRPVRGYDYWGQGTQVTVSS”, the “polyreactivity (PSR sort gate)” value was “high polyreactivity”.

Turning to “QVQLVESGGGLVQAGGSLRLSCAASGRIFSYYAMGWYRQAPGKDRELVAAISRSGGRTYYADSVKGRFTISRDNAKNTVYLQMNSLNPEDTAVYYCAATFSRGYDYWGQGTQVTVSS”, the “polyreactivity (PSR sort gate)” value is “high polyreactivity”.

As to “QVQLVESGGGLVQAGGSLRLSCAASGRTIGFNGMGWYRQAPGKERELVAAITRSGGNTYADSVKGRFTISRDNAKNTVYLQMNSLKPEDTAVYYCATTYVGVTLTGPGDYWGQGTQVTVSS”, the “polyreactivity (PSR sort gate)” value is reported as “low polyreactivity”.

On to “QVQLVESGGGLVQAGGSLRLSSAASGFIFKYNAMGWYRKAPGKERELGAAITWSGGSTYYADSVKGRFTISRDNAKNTVYLQMNSLKPEDTAVYYCAARPYRTKLIYGYWGQGTHVTVSS”, for which the “polyreactivity (PSR sort gate)” value is “high polyreactivity”.

For “QVQIVESGGGLVQAGGSLRLSCAASGLTLGRNAMGWYRQAPGKERELVAAITQSGGSTYYADSVKGRFTISRDNAKNTVYLQMNSLKPEDTAVYYCAAEVVRQWHGIGYDYWGHGTQVTVSS”, the “polyreactivity (PSR sort gate)” value is on record as “low polyreactivity”.

With “QVQLVESVGGLDQAGGSLRLSCAASGRIFRYYAMGWDRQAPGKERELVAAITSDGRTYYADSVKGRFTISRDNAKNTVYLQMNSLKPEDTAVYYCAADHHSYRYGGYYYWGQGTQVTVSS”, the “polyreactivity (PSR sort gate)” value is listed as “low polyreactivity”.

As to “QDQLVESGGGLVQAGGSIRLSCAASGGIFESYAMGWYRQAPGKEREMVASISSGGSTYYADSVKGRFTISRDNAKNTVYLQMNSLKPEDTAVYYCNKDYRSVYKGRGFDYWGQGTQVTVSS”, the “polyreactivity (PSR sort gate)” value is listed as “low polyreactivity”.

In the case of “QVQLVESGGGLVQAGGSLRLRCAASGFTFTKNAIGWYRQAPGKERELVAAITRRGSSTYYADSVKGRFTISRDNAKNTVYIQMNSLKPEDTAVYYCNADYETISGDYWGQGTQVTVSS”, the “polyreactivity (PSR sort gate)” value is reported as “high polyreactivity”.

As for “QVQLVESGGGLVQAGGSLRLSCAASGFNFERYAMGWYRQAPGKERELVAAISSRGGGTYYADSVKGRFTISRDNAKNTVYLQMNSLKPEDTAVYYCNRPYDYSYNYWGQGTQVTVSS”, the “polyreactivity (PSR sort gate)” value is “high polyreactivity”.

Regarding “QVQLVESGGGLVQAGCSLRLSCAASGFIFQANAMGWYRQAPGKERELVAAIDDGDSTYADSVKGRFTISRDNAKNTVYLQMNSLKPEDTAVYYCNADLYGAQDRRLDYYAEGYWGQGTQVTVSS”, the “polyreactivity (PSR sort gate)” value is “low polyreactivity”.

With “QVQLVESGGGLVQAGGSLLLSCAASGSTFYKYAMGWYRQAPGKERELVARNSRGGGSTYYADSVKGRFTISRDNAKNTVYLQMNSLKPEDTAVYYCAAGVRGQNEGYYWGQGTQVTVSS”, the “polyreactivity (PSR sort gate)” value was “high polyreactivity”.

Take “QVQLVESGGGLVQAGGSLRLSCAASGSTFVVNAMGWYRQAPGKERELVAAIRSGSSTNYADSVKGRFTISRDNAKNTVYLQMNSLKPEDTAVYYCAARSKYTHSRQSDYWGQGTQVTVSS”: the “polyreactivity (PSR sort gate)” value was “low polyreactivity”.

Consider “QVQLVESGGGLVQAGGSLRLSCAASGRTFGSYAMGWYRQAPGKEREFVAGISYGGGRTYYADSVKGRFTISRDNAKNTVYLQMNSLKPEDTAVYYCAADGVYRYNYPYLYTYDYWGQGTQVTVSS”, for which the “polyreactivity (PSR sort gate)” value is on record as “low polyreactivity”.

For “QVQLVESGGGLVQAGGSLRLSCAASGRIFDVYAMGWYRQAPGKERELVAGITYSGGSTYYADSVKGRFTISRDNAKNTVYVQMNSLKPEDTAVYYCAALNGDPYVQLLEDYWGQGTQVTVSS”, the “polyreactivity (PSR sort gate)” value is “low polyreactivity”.

Turning to “QVQLVESGGGLVQAGGSLRLSCAASGRTLWYYTMGWYRQAPGKERELVAVISTSGGRTYYADSVKGRFTISRDNAKNTVYLQMNSLKPEDTAVYYCAADGFQYTLGNYYWGQGTQVTVSS”, the “polyreactivity (PSR sort gate)” value is “high polyreactivity”.

Regarding “QVQLVESGGGLVQAGGSIRLSCAASGFIFNHYAMGWYRQAPVKEREFVAAISWSGTRTYYADSVKGRFTISRDNAKNTVYLQMNSLKPEDTAVYYCAADVWGPYDYWGQGTQVTVSS”, the “polyreactivity (PSR sort gate)” value was “low polyreactivity”.

For the sequence “QVQLVDSGGGLVQAEGSLRLSCAPSGIIFGGYAMGWYIPAPGKERELVAAISRSGGSTYYADSVKGRFTISRDNAKNTVYLQMNSLKPEDTAVYYCAADGGAYEYDYWGQGTQVTVSS”, the “polyreactivity (PSR sort gate)” value is “high polyreactivity”.

In the case of “QFQLEESGGGLVQAGGSLRLSCAASGSTFWYNAMGWYRQAPGKERELVAAISRSGATTYYADSVKGRFTISRDNAKNTVYLQMNSLKPEDTAVYYCNAVISPSSYVRNSDYWGQGTQVTVSS”, the “polyreactivity (PSR sort gate)” value is given as “low polyreactivity”.

Turning to “QVQLVESGGGLVQAGGSLRLSCAASGFTLHSYAMGWYRQAPWKERELVAAITRSGGGTYYADSVKGRFTISRDNAKNTVYLQMNSLKPEDTAVYYCAARFGGQYQHDYWGQGTQVTVSS”, the “polyreactivity (PSR sort gate)” value was “high polyreactivity”.

Consider “QVQLVESGGGLVQAGGSLRLSCAASGIIFDYNAMGWYRQAPGKERELVAAITSTDNTNYADSVKGRFTISRDNAKNTVYLQMNSLKPEDTAVYYCNSVYWLSVVYAMDYWGQGTQVTVSS”, for which the “polyreactivity (PSR sort gate)” value was “low polyreactivity”.

As for “QVQLVESGGGLVQAGCSRRLRCAASGFTFRLYAMGWSRQAPGKERELVAATTSGGSTYYADSVKGRFTISRDNAKNTVYLQMNSLKPEDTAVYYCNKLYRTSVEYDYWGQGTLVTVSS”, the “polyreactivity (PSR sort gate)” value is listed as “high polyreactivity”.

Consider “QVQLVESWGGLVQAGGSLRLSCAASGRIFRNYVMGWYRQAPGKERELVAAISRSGGSTYYADSVKGRFTISRDNAKNTVYLQMNSLKPEDTAVYYCNADYATRRVSLNYGYWGQGTQVTVSS”, for which the “polyreactivity (PSR sort gate)” value is given as “high polyreactivity”.

As to “QVQLVESGGGLVQAGGSLRLSCAASGSTLRGYTMGWYRPAPGKERELVAAISWSGASTYYADSVKGRFTISRDSAKNTVYLQMNSLKPEVTAVYYCAVRYWAPYDEYGYWGQGTQVTVSS”, the “polyreactivity (PSR sort gate)” value is recorded as “high polyreactivity”.

For the sequence “QVQLVESGGGLVQAGGSLRLSCAASGSTFNYNAMGWYRQAPGKERELVAAITYSGSSTYYADSVKGRFTISRDNAKNTVYLQMNSLKPEDTAVYYCAAPPYNRPGYGYDYWGQGTQVTVSS”, the “polyreactivity (PSR sort gate)” value is on record as “high polyreactivity”.

As for “QVQLVESGGGLVQAGGSLRLSCAASGSIFTAYAMGWYRQAPGKERELVAAITTSGDSTYYADSVKGRFTISRDNAKNTVYLQMNSLKPEDTAVYYCAAEYYSYRITTYDYWGQGTQVTVSS”, the “polyreactivity (PSR sort gate)” value is “high polyreactivity”.

On to “QVQLVESGGGLVQAGGSLRLSCADSGITFDANTMGWYRQAPGKERELVAVITDTGSTNYADSVKGRFTISRDNAKNTVYLQMNSLKPEDTAVYYCNADAEPSSGTSANNDYWGQGTQVTVSS”, for which the “polyreactivity (PSR sort gate)” value is on record as “low polyreactivity”.

On to “QVQRVESGGGLVQAGGSLRLSCAASGRTFTYYAMGWYRQAPGKERELVAAISSRGGSTYYADSVKGRFTISRDNAKNTVYLQMNSLKPEDTAVYYCAAVLRFTRASRWPDFDYWGQGTQVTVSS”, for which the “polyreactivity (PSR sort gate)” value is “high polyreactivity”.

Take “QVQLVESGGGLVQAGGSLRLSCAASGSTFILNAMGWYRQAPGKERELVAAISRSGGNTYYADSVKGRFTISRDIAKNTVYLQMNSLKPEDTAVYYCAATRRSHYYYWGQGTQVTVSS”: the “polyreactivity (PSR sort gate)” value is on record as “high polyreactivity”.

On to “QVQLVDSGGGLVQAGGSLRLSCAASGSIYGFYAMGWYRQAPGKERELVATIRTSGGNTYYADSVKGRFTISRDNAKNTVYLQLKSMKPEDTAVYYCAAAGYLYSGDVHYLYTYEYWGQRTQVTVSS”, for which the “polyreactivity (PSR sort gate)” value was “low polyreactivity”.

With “QVQLVESGGGLVQAGGSLRLSCAASGRTLVYAMGWYRQAPGKERELVATIYRGGNTYYADSVKGRFTISRDNAKNTVYLQMNSLKPEDTAVYYCNKPTYQWGQGTQVTVSS”, the “polyreactivity (PSR sort gate)” value was “high polyreactivity”.

Consider “QVQLVESGGGLVQAGGSLRLSCAASGFISPQNTMGWYRQAPGKERELVAAITSGGSTYYADSVKGRFTISRDNAKNTVYLLMNSLKPEDTAVYYCASRPYGTWTYGYWGQGTQVTVSS”, for which the “polyreactivity (PSR sort gate)” value was “low polyreactivity”.

Consider “QVQLVESGGGLVQAGGSLRLSCAASGSTSAYYAMGWYRQAPGKERELVAAISWSGGLTYYADSVKGRFTISRDNAKNTVYLQMNSLKPEDTAVYYCAASSYPYGYDYWGQGTQVTVSS”, for which the “polyreactivity (PSR sort gate)” value was “high polyreactivity”.

As to “QVQLVESGGGLVQAGGSLRLSCAASGSIFWVYVLGWYRQAPGKERELVAAITNGGSTDYADSVKGRFTISRDNAKNTVYLQMNSLKPEDTAVYYCAKRSTIWGRILITYDYWGQGTQVTVSS”, the “polyreactivity (PSR sort gate)” value is “low polyreactivity”.

On to “QVQLVESGGGLVQAGGSLRLRCDASGLIFYDNMGWYRQAPGKERELVAAISSSGGSTSYADSVKGRFTISRDNAKNTVYLQMNSLKPEDTAVYYCAADSYPAYLGFVGFDYWGQGTQVTVSS”, for which the “polyreactivity (PSR sort gate)” value is “low polyreactivity”.

Consider “QVQLVESGGGLVQAGGSLRLSCAASGSTFWTNDMGWYRQAPGKERELVAAISQSAGDTYYADSVKGRFTISRDNAKNTVYLQMNSLKPEDTAVSYCAADLVFYPFTWDGYYYWGQGTQVTVSS”, for which the “polyreactivity (PSR sort gate)” value was “low polyreactivity”.

As for “QVQLVESGGGLVQAGGSLRLSCAASGFTFPYYAMGWYRQAPGKERELVAAISRNGGSTYYADSVKGRFTISRDNAKNTVYLQMNSLKPEDTAVYYCAARYRYWGGSGFKGFDYWGQGTQVTVSS”, the “polyreactivity (PSR sort gate)” value is “high polyreactivity”.

Turning to “QVQLVESGGGLVQAGGSLRLSCAASGYGMGWYRQAPGKEREFVAAITSGGSTNYAVSVKGRFTISRDNAKNTVYLHMNSLKPEDSAVYYCAAAYSLYGHRYDYWGQGTQVTVSS”, the “polyreactivity (PSR sort gate)” value is given as “high polyreactivity”.

As to “QVQLVESRGGVVQAGGSLRLSSDDSGFTFYYYAMGWYRQAPGKERQLVAPITKSGGSTYYADSVKWRFTISRDNSKNSLYVKFNRLKPEDTAVYYCNKVTYSSDQYFGGDGYFWGQGTQVTVTS”, the “polyreactivity (PSR sort gate)” value is “high polyreactivity”.

Values taken from the nanobody polyreactivity screen of Harvey et al. (2022).
